Results taken from US20120094895A1 (MOSAMEDIX B V, published 2012).

Experiments:
integrin αvβ3 = molecular target: T1, integrin αvβ3 (UniProt P06756 31-1048; P05106 27-788, limits assumed); test: flow cytometry, fluorescein labeled protein on MCF-7 and THP-1 cells
T1 construct: whole, on cells; Endogenous on MCF-7 and THP-1 cells (human cell lines); also called integrin-receptor

integrin αvβ5 = molecular target: T2, integrin αvβ5 (UniProt P06756 31-1048; P18084 24-799, limits assumed); test: as above
T2 construct: whole, on cells; Endogenous on MCF-7 and THP-1 cells (human cell lines); also called integrin-receptor
T2 sequence (P06756 31-1048 limits assumed, chain 1 of 2): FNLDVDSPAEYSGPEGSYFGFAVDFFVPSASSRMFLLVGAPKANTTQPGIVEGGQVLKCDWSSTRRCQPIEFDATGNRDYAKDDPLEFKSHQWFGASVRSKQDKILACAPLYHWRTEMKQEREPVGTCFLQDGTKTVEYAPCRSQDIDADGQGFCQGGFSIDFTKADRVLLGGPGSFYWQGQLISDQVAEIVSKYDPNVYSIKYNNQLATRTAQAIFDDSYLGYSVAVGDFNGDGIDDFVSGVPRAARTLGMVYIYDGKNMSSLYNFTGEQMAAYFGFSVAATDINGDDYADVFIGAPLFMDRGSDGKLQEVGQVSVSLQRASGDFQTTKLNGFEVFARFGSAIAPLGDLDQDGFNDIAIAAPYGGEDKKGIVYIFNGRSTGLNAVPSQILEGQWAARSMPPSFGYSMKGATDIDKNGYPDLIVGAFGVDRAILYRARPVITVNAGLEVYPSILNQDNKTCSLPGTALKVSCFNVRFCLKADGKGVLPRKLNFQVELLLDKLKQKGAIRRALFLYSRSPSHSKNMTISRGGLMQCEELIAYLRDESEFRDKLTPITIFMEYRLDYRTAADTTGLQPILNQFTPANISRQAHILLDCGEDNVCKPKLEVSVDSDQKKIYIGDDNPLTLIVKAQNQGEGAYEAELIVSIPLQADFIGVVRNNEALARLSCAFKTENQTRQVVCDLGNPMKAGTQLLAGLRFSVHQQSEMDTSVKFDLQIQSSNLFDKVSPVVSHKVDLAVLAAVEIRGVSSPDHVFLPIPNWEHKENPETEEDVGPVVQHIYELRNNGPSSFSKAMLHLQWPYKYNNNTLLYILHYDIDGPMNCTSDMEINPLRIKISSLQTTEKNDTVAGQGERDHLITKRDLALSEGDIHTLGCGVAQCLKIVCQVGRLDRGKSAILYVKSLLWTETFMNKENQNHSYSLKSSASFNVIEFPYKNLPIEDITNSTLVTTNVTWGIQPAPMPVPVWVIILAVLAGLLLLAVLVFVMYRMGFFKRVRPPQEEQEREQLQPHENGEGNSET
T2 sequence (P18084 24-799 limits assumed, chain 2 of 2): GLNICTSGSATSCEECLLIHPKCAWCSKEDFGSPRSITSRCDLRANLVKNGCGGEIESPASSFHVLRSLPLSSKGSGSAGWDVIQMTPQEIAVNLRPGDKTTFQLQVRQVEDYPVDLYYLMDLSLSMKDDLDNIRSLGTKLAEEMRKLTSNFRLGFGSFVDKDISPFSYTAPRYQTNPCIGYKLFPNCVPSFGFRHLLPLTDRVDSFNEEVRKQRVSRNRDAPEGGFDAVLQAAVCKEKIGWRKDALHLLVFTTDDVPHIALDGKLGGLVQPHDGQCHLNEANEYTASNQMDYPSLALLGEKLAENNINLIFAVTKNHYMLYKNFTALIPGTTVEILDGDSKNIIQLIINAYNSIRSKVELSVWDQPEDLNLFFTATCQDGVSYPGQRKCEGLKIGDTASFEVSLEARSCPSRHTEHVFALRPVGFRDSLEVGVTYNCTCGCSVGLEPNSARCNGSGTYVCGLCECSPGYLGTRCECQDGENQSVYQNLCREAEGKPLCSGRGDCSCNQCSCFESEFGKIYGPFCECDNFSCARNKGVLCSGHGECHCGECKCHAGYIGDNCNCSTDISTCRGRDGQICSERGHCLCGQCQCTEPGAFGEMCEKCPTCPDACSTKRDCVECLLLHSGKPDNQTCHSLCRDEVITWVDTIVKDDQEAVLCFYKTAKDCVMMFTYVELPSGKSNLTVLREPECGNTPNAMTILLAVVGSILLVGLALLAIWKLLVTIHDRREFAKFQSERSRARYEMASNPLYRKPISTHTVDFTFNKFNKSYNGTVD

T1 sequence (P06756 31-1048 limits assumed, chain 1 of 2): as the sequence (P06756 31-1048 limits assumed, chain 1 of 2) above
T1 sequence (P05106 27-788 limits assumed, chain 2 of 2): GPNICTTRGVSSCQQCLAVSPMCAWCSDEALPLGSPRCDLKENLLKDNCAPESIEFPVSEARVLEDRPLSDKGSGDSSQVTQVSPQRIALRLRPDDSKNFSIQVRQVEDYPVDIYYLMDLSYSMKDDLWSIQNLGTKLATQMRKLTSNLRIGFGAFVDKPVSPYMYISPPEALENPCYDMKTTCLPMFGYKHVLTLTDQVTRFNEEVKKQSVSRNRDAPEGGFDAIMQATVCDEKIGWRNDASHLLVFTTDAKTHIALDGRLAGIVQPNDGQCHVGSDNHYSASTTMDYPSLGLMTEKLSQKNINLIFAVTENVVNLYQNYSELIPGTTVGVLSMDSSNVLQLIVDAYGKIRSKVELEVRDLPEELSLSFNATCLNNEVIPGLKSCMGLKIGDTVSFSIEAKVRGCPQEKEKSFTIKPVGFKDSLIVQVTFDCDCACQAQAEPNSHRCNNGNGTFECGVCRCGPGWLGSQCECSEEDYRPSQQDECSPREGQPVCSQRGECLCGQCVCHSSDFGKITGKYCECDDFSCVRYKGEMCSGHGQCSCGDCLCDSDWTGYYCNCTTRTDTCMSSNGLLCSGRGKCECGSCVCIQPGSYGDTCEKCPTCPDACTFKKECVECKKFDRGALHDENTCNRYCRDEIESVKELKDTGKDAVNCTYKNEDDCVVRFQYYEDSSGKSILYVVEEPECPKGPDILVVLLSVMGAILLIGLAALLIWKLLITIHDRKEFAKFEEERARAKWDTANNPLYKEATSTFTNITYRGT

B1: annexin A5-T7D variant (other)
chain: AQVLRGDVTDFPGFDERADAETLRKAMKGLGTDEESILTLLTSRSNAQRQEISAAFKTLFGRDLLDDLKSELTGKFEKLIVALMKPSRLYDAYELKHALKGAGTNEKVLTEIIASRTPEELRAIKQVYEEEYGSSLEDDVVGDTSGYYQRMLVVLLQANRDPDAGIDEAQVEQDAQALFQAGELKWGTDEEKFITIFGTRSVSHLRKVFDKYMTISGFQIEETIDRETSGNLEQLLLAVVKSIRSIPAYLAETLYYAMKGAGTDDHTLIRVMVSRSEIDLFNIRKEFRKNFATSLYSMIKGDTSGDYKKALLLLCGEDD
modifications: fluorescein (FITC) label, site not stated
notes: Made in E. coli and purified; also called T7D anxA5; RGD-anxA5
B1: binds (integrin αvβ3); binds (integrin αvβ5).
